Measured values reported in article PMC10777205, “Identification of the p-coumaric acid biosynthetic gene cluster in Kutzneria albida: insights into the diazotization-dependent deamination pathway” (Beilstein Journal of Organic Chemistry, 2024).

Legend:
purified protein [1] = substrate: [N-]=[N+]=C1C=C(/C=C/C=C/C(=O)O)C=CC1=O; test: purified protein; assay type: biochemical, Streptomyces sp.; settings: 800 µM NADPH, 3-DAA made in situ by CmaA6, 25-400 µM, pH 8.0
purified protein [2] = substrate: NC(=O)C1=CN([C@@H]2O[C@H](COP(=O)(O)OP(=O)(O)OC[C@H]3O[C@@H](n4cnc5c(N)ncnc54)[C@H](OP(=O)(O)O)[C@@H]3O)[C@@H](O)[C@H]2O)C=CC1; test: purified protein; assay type: biochemical, Streptomyces sp.; settings: 3-DAA made in situ by CmaA6 from 1.0 mM 3-AAA, pH 8.0, varied: cofactor

B1: AvaA7 (Streptomyces sp.) (protein)
chain: MRVLVAGATGVIGHPLVGALRARGHNVSALVRDASRAPEADRVVVADALDREAVLSAVSAARPEVVVHQLTALRLLRDDPPEAFAQTARLRTEGTAHLVEAARAAGARRLVAQSIAFAAAPQGPPVLDEDAPLYVDAPDPGWAATVRAVAELERLVASSDLAGLVLRYGTLYGPGTGYARDGGTALRVLAGKLPLPEGGAGVTSFLHVDDAVGAAVAAVESEATGCLHVTDDEPAPAAQWLPHYARTLGAPPPRTLPAALAPRLLGWFMTHQLTTARGAANDRARTALGWKPTHPSWRDGLGRE
notes: recombinant
Km (purified protein [1]): 152 ± 31 µM | kcat (purified protein [1]): 10.2 ± 0.917 s⁻¹ | kcat/Km (purified protein [1]): 66700 M⁻¹ s⁻¹ | Km (purified protein [2]): 138 ± 10 µM | kcat (purified protein [2]): 4.433 ± 0.0333 s⁻¹ | kcat/Km (purified protein [2]): 31700 M⁻¹ s⁻¹
